Data as given in patent publication US20050226885A1.
“And” between values parts separate entries of the source, which are not always exact repeats. Equal values may be shown once.

Target: C215 antigen (human GA-733 antigen recognized by the C215 mAb) (human) (UniProt P16422)
Assay: FACS on Colo205 cells

UniProt P16422, sequence (P16422 24-314): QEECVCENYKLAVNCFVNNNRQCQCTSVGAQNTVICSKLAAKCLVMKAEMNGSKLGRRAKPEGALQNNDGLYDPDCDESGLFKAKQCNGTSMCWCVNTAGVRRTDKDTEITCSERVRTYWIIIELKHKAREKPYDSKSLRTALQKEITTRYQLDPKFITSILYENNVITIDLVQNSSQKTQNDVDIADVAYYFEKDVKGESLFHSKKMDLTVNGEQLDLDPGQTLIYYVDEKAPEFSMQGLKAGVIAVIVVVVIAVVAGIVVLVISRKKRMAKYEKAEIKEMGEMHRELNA

**Q.** For “CD80-C215Fab (from UniProt P33681 35-242)”, which fold lower binding than that of C215Fab-SEA is on record?
**A.** The fold lower binding than that of C215Fab-SEA was 50 fold lower and 100 fold lower.

**Q.** What about the fold reduction of binding compared to C215Fab-SEA of the same substance?
**A.** Its fold reduction of binding compared to C215Fab-SEA is 100 fold reduced.
